From US20250312499A1, “KISSPEPTIN RECEPTOR (KISS1R) TARGETED THERAPEUTICS AND USES THEREOF” (priority 2024, published 2025) come the findings set out here.

Square brackets hold non-standard residues; d marks the D form. * marks the point of attachment. DOTA = O=C(O)CN1CCN(CC(=O)O)CCN(CC(=O)*)CCN(CC(=O)O)CC1; Piperidine‑2‑carboxylic_acid(MeGly) = not defined here; Ala(9-anthryl) = N[C@@H](Cc1c2ccccc2cc2ccccc12)C(=O)O; Butanoyl(4-(4-I-phenyl)) = O=C(CCCc1ccc(I)cc1)*; Bpa = N[C@@H](Cc1ccc(C(=O)c2ccccc2)cc1)C(=O)O; Api(1-amidino) = N=C(N)N1CCC(N)(C(=O)O)CC1; Bip = N[C@@H](Cc1ccc(-c2ccccc2)cc1)C(=O)O; d2Nal = N[C@H](Cc1ccc2ccccc2c1)C(=O)O; Hyp = O=C(O)[C@@H]1C[C@@H](O)CN1; 4Pal = N[C@@H](Cc1ccncc1)C(=O)O; d4Pal = N[C@H](Cc1ccncc1)C(=O)O; Cha = N[C@@H](CC1CCCCC1)C(=O)O; Ahx = NCCCCCC(=O)O; azaGly = NNC(=O)O

The target of this test is human kisspeptin receptor (KISS1R) (human) (UniProt Q969F8). Kind of test: radioligand competition, hKISS1R membranes; legend: A is <10 nM. (In a radioligand displacement assay an active substance lowers the binding of a labelled ligand.)
Sequence of human kisspeptin receptor (KISS1R) (human) (Q969F8 whole entry): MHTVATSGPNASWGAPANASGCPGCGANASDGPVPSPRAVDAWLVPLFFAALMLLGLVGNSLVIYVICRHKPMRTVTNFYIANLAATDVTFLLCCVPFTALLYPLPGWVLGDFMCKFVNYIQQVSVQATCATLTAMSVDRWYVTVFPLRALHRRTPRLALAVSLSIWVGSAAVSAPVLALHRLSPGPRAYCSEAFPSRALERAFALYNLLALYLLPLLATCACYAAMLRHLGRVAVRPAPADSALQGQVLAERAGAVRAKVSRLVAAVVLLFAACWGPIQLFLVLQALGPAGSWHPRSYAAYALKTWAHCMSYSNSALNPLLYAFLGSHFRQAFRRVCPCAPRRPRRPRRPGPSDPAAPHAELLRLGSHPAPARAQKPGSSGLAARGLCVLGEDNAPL

For the molecule {DOTA-Ahx}-[dY][d4Pal]NTF[azaGly]L[Apc(OMe)][4Pal]-NH2 [Compound 299], the Ki was below 0.01 µM. The figure for {DOTA-Ahx}-[dY][d2Nal]NTF[azaGly]L[Api(1-amidino)]W-NH2 [Compound 269] is below 0.01 µM; for {DOTA-Ahx}-[dK](4‑(p-tolyl)butanoyl)[dY][d2Nal]NTF[azaGly]L[Api(1-amidino)]F-NH2 [Compound 309] it is below 0.01 µM.

B1: Compound 301 (peptide)
peptide: {DOTA-Ahx}-[d2Nal]NTF[azaGly]L[Api(1-amidino)]F-NH2
SMILES: CC(C)C[C@H](NC(=O)NNC(=O)[C@H](Cc1ccccc1)NC(=O)[C@@H](NC(=O)[C@H](CC(N)=O)NC(=O)[C@@H](Cc1ccc2ccccc2c1)NC(=O)CCCCCNC(=O)CN1CCN(CC(=O)O)CCN(CC(=O)O)CCN(CC(=O)O)CC1)[C@@H](C)O)C(=O)NC1(C(=O)N[C@@H](Cc2ccccc2)C(N)=O)CCN(C(=N)N)CC1
For B1, the Ki is below 0.01 µM.

B2: Compound 311 (peptide)
peptide: {DOTA-Ahx}-[dY][Hyp]NTF[azaGly]L[Api(1-amidino)]W-NH2
SMILES: CC(C)C[C@H](NC(=O)NNC(=O)[C@H](Cc1ccccc1)NC(=O)[C@@H](NC(=O)[C@H](CC(N)=O)NC(=O)[C@@H]1C[C@@H](O)CN1C(=O)[C@@H](Cc1ccc(O)cc1)NC(=O)CCCCCNC(=O)CN1CCN(CC(=O)O)CCN(CC(=O)O)CCN(CC(=O)O)CC1)[C@@H](C)O)C(=O)NC1(C(=O)N[C@@H](Cc2c[nH]c3ccccc23)C(N)=O)CCN(C(=N)N)CC1
As to B2, the Ki was below 0.01 µM.

B3: Compound 310 (peptide)
peptide: {DOTA-Ahx}-[dK](Butanoyl(4-(4-I-phenyl)))[dY][d2Nal]NTF[azaGly]L[Api(1-amidino)]F-NH2
SMILES: CC(C)C[C@H](NC(=O)NNC(=O)[C@H](Cc1ccccc1)NC(=O)[C@@H](NC(=O)[C@H](CC(N)=O)NC(=O)[C@@H](Cc1ccc2ccccc2c1)NC(=O)[C@@H](Cc1ccc(O)cc1)NC(=O)[C@@H](CCCCNC(=O)CCCc1ccc(I)cc1)NC(=O)CCCCCNC(=O)CN1CCN(CC(=O)O)CCN(CC(=O)O)CCN(CC(=O)O)CC1)[C@@H](C)O)C(=O)NC1(C(=O)N[C@@H](Cc2ccccc2)C(N)=O)CCN(C(=N)N)CC1
Take B3: the inhibition constant Ki was below 0.01 µM. For {DOTA-Ahx}-[dY][3‑(9-anthryl)alanine]NTF[azaGly]L[Api(1-amidino)][4Pal]-NH2 [Compound 222] the value was below 0.01 µM.

B4: Compound 317 (peptide)
peptide: {DOTA-Ahx}-[dY][d2Nal]NT[Cha][azaGly]L[Api(1-amidino)]W-NH2
SMILES: CC(C)C[C@H](NC(=O)NNC(=O)[C@H](CC1CCCCC1)NC(=O)[C@@H](NC(=O)[C@H](CC(N)=O)NC(=O)[C@@H](Cc1ccc2ccccc2c1)NC(=O)[C@@H](Cc1ccc(O)cc1)NC(=O)CCCCCNC(=O)CN1CCN(CC(=O)O)CCN(CC(=O)O)CCN(CC(=O)O)CC1)[C@@H](C)O)C(=O)NC1(C(=O)N[C@@H](Cc2c[nH]c3ccccc23)C(N)=O)CCN(C(=N)N)CC1
B4 returned an inhibitory constant (Ki) below 0.01 µM.

B5: Compound 300 (peptide)
peptide: {DOTA-Ahx}-[dY][d2Nal]NTF[azaGly]L[Api(1-amidino)]F-NH2
SMILES: CC(C)C[C@H](NC(=O)NNC(=O)[C@H](Cc1ccccc1)NC(=O)[C@@H](NC(=O)[C@H](CC(N)=O)NC(=O)[C@@H](Cc1ccc2ccccc2c1)NC(=O)[C@@H](Cc1ccc(O)cc1)NC(=O)CCCCCNC(=O)CN1CCN(CC(=O)O)CCN(CC(=O)O)CCN(CC(=O)O)CC1)[C@@H](C)O)C(=O)NC1(C(=O)N[C@@H](Cc2ccccc2)C(N)=O)CCN(C(=N)N)CC1
As for B5, the inhibition constant (Ki) is below 0.01 µM. The molecule {DOTA}-[dY][3‑(9-anthryl)alanine]NTF[azaGly]L[Api(1-amidino)][4Pal]-NH2 [Compound 221] came in with an inhibition constant Ki below 0.01 µM.

B6: Compound 184 (peptide)
peptide: {DOTA}-[Ahx][dY][Ala(9-anthryl)]NTF[azaGly]L[Api(1-amidino)]W-NH2
SMILES: CC(C)C[C@H](NC(=O)NNC(=O)[C@H](Cc1ccccc1)NC(=O)[C@@H](NC(=O)[C@H](CC(N)=O)NC(=O)[C@H](Cc1c2ccccc2cc2ccccc12)NC(=O)[C@@H](Cc1ccc(O)cc1)NC(=O)CCCCCNC(=O)CN1CCN(CC(=O)O)CCN(CC(=O)O)CCN(CC(=O)O)CC1)[C@@H](C)O)C(=O)NC1(C(=O)N[C@@H](Cc2c[nH]c3ccccc23)C(N)=O)CCN(C(=N)N)CC1
Consider B6, for which the inhibition constant (Ki) is below 0.01 µM.

B7: Compound 198 (peptide)
peptide: {DOTA}-[Ahx][dY][Bip]NTF[azaGly]L[Api(1-amidino)]W-NH2
SMILES: CC(C)C[C@H](NC(=O)NNC(=O)[C@H](Cc1ccccc1)NC(=O)[C@@H](NC(=O)[C@H](CC(N)=O)NC(=O)[C@H](Cc1ccc(-c2ccccc2)cc1)NC(=O)[C@@H](Cc1ccc(O)cc1)NC(=O)CCCCCNC(=O)CN1CCN(CC(=O)O)CCN(CC(=O)O)CCN(CC(=O)O)CC1)[C@@H](C)O)C(=O)NC1(C(=O)N[C@@H](Cc2c[nH]c3ccccc23)C(N)=O)CCN(C(=N)N)CC1
As for B7, the Ki was below 0.01 µM. For {DOTA}-[Ahx][dY][d2Nal]NTF[azaGly]L[Piperidine‑2‑carboxylic_acid(MeGly)]W-NH2 (not fully specified; reading uncertain) [Compound 201] the value was below 0.01 µM.

B8: Compound 185 (peptide)
peptide: {DOTA}-[Ahx][dY][d2Nal]NTF[azaGly]L[Api(1-amidino)]Y-NH2
SMILES: CC(C)C[C@H](NC(=O)NNC(=O)[C@H](Cc1ccccc1)NC(=O)[C@@H](NC(=O)[C@H](CC(N)=O)NC(=O)[C@@H](Cc1ccc2ccccc2c1)NC(=O)[C@@H](Cc1ccc(O)cc1)NC(=O)CCCCCNC(=O)CN1CCN(CC(=O)O)CCN(CC(=O)O)CCN(CC(=O)O)CC1)[C@@H](C)O)C(=O)NC1(C(=O)N[C@@H](Cc2ccc(O)cc2)C(N)=O)CCN(C(=N)N)CC1
Turning to B8, the Ki was below 0.01 µM.

B9: Compound 183 (peptide)
peptide: {DOTA}-[Ahx][dY][Bpa]NTF[azaGly]L[Api(1-amidino)]W-NH2
SMILES: CC(C)C[C@H](NC(=O)NNC(=O)[C@H](Cc1ccccc1)NC(=O)[C@@H](NC(=O)[C@H](CC(N)=O)NC(=O)[C@H](Cc1ccc(C(=O)c2ccccc2)cc1)NC(=O)[C@@H](Cc1ccc(O)cc1)NC(=O)CCCCCNC(=O)CN1CCN(CC(=O)O)CCN(CC(=O)O)CCN(CC(=O)O)CC1)[C@@H](C)O)C(=O)NC1(C(=O)N[C@@H](Cc2c[nH]c3ccccc23)C(N)=O)CCN(C(=N)N)CC1
With B9, the Ki is below 0.01 µM.

Broadly, the Ki is a measure of affinity in units of concentration, obtained from inhibition or displacement. The low end stands for a stronger hold on the target, the high end for a looser hold on the target.
